For orientation: stoichiometry N means the number of molecules, sites or subunits per partner or assembly.

The target of test [1] is Caulobacter crescentus histidine kinase HnoK, as purified (Caulobacter crescentus). The experiment in a line: SEC; HiPrep Sephacryl S-200 HR column in 20 mM Tris, pH 8, 150 mM NaCl; elution volumes at the last step of purification. In general terms: SEC sorts molecules by how far they enter the pores of the column.
In the next test the target is T1, HnoK (Caulobacter vibrioides, UniProt A0A0H3CAQ8, D543N).
T1 construct: gene CCNA_03088; N-terminal 6-His version also tested; E. coli BL21(DE3); homodimer
The experiment in a line: […] autophosphorylation, SDS-PAGE autoradiography. It is filed as biochemical. As to conditions: 1 mM ATP with [gamma-32P]ATP, Mn2+ or Mg2+ 5 mM (Mn2+ preferred), room temperature; MBP fusion; labelled compound.

T1 sequence (A0A0H3CAQ8 entry or part of it D543N): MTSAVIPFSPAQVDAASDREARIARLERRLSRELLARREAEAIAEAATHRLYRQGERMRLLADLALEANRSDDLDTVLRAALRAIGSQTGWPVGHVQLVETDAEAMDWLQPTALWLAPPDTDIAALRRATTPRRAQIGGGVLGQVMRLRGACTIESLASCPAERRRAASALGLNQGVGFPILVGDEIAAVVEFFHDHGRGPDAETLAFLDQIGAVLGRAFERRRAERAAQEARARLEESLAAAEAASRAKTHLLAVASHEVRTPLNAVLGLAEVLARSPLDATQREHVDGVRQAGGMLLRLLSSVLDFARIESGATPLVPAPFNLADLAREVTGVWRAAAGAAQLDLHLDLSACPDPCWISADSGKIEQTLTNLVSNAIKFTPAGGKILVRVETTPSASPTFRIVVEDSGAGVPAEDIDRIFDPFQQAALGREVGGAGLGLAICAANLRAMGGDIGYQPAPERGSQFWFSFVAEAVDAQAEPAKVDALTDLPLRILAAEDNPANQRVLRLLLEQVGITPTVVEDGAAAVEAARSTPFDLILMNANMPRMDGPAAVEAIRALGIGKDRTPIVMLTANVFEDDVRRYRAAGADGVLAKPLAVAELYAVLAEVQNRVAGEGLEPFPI

In turn, “Caulobacter crescentus histidine kinase HnoK, as purified (from UniProt A0A0H3CAQ8 1-624) (enzyme)” came in with a stoichiometry N in test [1] of 2. Turning to `Nc1ncnc2c1ncn2[C@@H]1O[C@H](COP(=O)(O)OP(=O)(O)OP(=O)(O)O)[C@@H](O)[C@H]1O` [ATP], the “32P autophosphorylation, SDS-PAGE autoradiography” value at HnoK is on record as “D543N HnoK-MBP was used for the autophosphorylation assays shown”.
